# Assay results reported in patent publication EP0927045B1 (The Burnham Institute, dated 1998).
# Where no end group is shown, it is not given here.
# B1: phage expressing the RGD-containing peptide CDCRGDCFC (SEQ ID NO: 1) (peptide)
# chain: CDCRGDCFC
# modifications: not fully specified (bridges); cysteine pairing not given here; also: peptide displayed on filamentous phage (fuse5), up to five copies
# Biological target: αvβ3 integrin expressed on blood vessels forming in the tumor
# Experiment: cell-based or functional assay
binder,measurement,value
B1,"phage concentrated in the breast tumor after iv injection (in vivo homing), RGD phage against unselected phage",80 fold
